Consider three molecules from patent publication US20070065875A1 (INNATE PHARMA S A, published 2007).

Assay [1] concerns the target T1, NTB-A (NK-T-B-antigen) (human, UniProt Q96DU3 22-332).
T1 construct: Full-length surface glycoprotein; Native cells may also carry the allelic isoform with an extra Ala at position 266; also called KALI cDNA product; MA127-reactive molecule
T1 sequence: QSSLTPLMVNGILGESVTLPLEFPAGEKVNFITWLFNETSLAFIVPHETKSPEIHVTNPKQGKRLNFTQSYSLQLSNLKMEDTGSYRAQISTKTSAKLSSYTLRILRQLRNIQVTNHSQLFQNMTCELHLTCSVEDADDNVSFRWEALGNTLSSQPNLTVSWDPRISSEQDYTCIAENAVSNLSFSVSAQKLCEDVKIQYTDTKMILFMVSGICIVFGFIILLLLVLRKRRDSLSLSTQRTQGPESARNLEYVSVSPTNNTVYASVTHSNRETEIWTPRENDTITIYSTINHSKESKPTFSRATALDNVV
The experiment in a line: NTB-A immunoprecipitates from 1% digitonin NK cell lysates probed with anti-LAT antiserum. On the procedure:
(§1) NK cells (10⁸) were stimulated or not with 100 M sodium pervanadate (28). 1% NP-40 or 1% digitonin cell lysates were immunoprecipitated with Sepharose-PA (Amersham Pharmacia Biotech)-coupled mAbs. Samples were analyzed in discontinuous SDS-PAGE, transferred to Immobilon P (Millipore), and probed with: (a) anti-phosphotyrosine mAb (PY20-HRPO; Transduction Laboratories); (b) anti-SHP-2 or anti-SHP-1 mAbs (PTP1D and PTP1C, respectively; Transduction Laboratories) followed by rabbit anti-mouse-HRPO (Dako); (c) anti-SH2D1A rabbit anti-serum (produced by Eurogentec S.A; reference 28) followed by donkey anti-rabbit-HRPO (Amersham Pharmacia Biotech). The Renaissance Chemiluminescence Kit (NEN Life Science Products) was used for detection. Putative NTB-A association with known signal transducing molecules was analyzed by probing NTB-A immunoprecipitates, obtained from 1% digitonin cell lysates, with anti-FcRI (provided by E. Vivier, Marseille, France), anti-DAP12 (SI-28; reference 10), and anti-LAT (UBI; Upstate Biotechnology) antisera or with anti-CD3mAb (TIA/2; Immunotech).

Assay [2] concerns the target T1, NTB-A (NK-T-B-antigen). Kind of assay: NTB-A immunoprecipitates from 1% digitonin NK cell lysates probed by western blot. On the procedure:
as §1
(A western blot detects proteins with antibodies after separation by electrophoresis.)

B1: linker for activation of T cells (LAT) (other, human, UniProt O43561 1-262, looked up)
chain: MEEAILVPCVLGLLLLPILAMLMALCVHCHRLPGSYDSTSSDSLYPRGIQFKRPHTVAPWPPAYPPVTSYPPLSQPDLLPIPRSPQPLGGSHRTPSSRRDSDGANSVASYENEGASGIRGAQAGWGVWGPSWTRLTPVSLPPEPACEDADEDEDDYHNPGYLVVLPDSTPATSTAAPSAPALSTPGIRDSAFSMESIDDYVNVPESGESAEASLDGSREYVNVSQELHPGAAKTEPAALSSQEAEEVEEEGAPDYENLQELN
B1: the binding result with NTB-A (NK-T-B-antigen) [1] was “no binding”.

B2: KARAP/DAP12 (other, human, UniProt O43914 22-113, looked up)
chain: LRPVQAQAQSDCSCSTVSPGVLAGIVMGDLVLTVLIALAVYFLGRLVPRGRGAAEAATRKQRITETESPYQELQGQRSDVYSDLNTQRPYYK
Take B2: the binding result in the assay with NTB-A (NK-T-B-antigen) [2] is “no binding”.

B3: FcεRIγ (other, human, UniProt P30273 19-86, looked up)
chain: LGEPQLCYILDAILFLYGIVLTLLYCRLKIQVRKAAITSYEKSDGVYTGLSTRNQETYETLKHEKPPQ
Turning to B3, the binding result in the assay with NTB-A (NK-T-B-antigen) [2] is given as “no binding”.
